Test results taken from PMC9068813, “Enhancer RNAs stimulate Pol II pause release by harnessing multivalent interactions to NELF”.

Assays:
Details in all cases: protein: recombinant; tags: His-tag (Ni-NTA purified); copies: 1;1;1;1
NELF complex WT [1] = target: T1, NELF complex WT (UniProt Q9H3P2;Q8WX92;Q8IXH7;P18615 1-528;1-628;1-590;1-380); experiment: EMSA (NELF release from PEC); up to 2.4 µM; 20 mM Na-HEPES pH 7.4, 100 mM NaCl, 25 mM KCl, 3 mM MgCl2, 2 mM DTT; assembly 30 °C, eRNA incubation 15-20 min at room temperature; 3.5% native PAGE 0.5x TBE at 4 °C; PEC about 0.1 µM NELF 0.15 µM
T1 sequence (Q9H3P2 whole entry, chain 1 of 4): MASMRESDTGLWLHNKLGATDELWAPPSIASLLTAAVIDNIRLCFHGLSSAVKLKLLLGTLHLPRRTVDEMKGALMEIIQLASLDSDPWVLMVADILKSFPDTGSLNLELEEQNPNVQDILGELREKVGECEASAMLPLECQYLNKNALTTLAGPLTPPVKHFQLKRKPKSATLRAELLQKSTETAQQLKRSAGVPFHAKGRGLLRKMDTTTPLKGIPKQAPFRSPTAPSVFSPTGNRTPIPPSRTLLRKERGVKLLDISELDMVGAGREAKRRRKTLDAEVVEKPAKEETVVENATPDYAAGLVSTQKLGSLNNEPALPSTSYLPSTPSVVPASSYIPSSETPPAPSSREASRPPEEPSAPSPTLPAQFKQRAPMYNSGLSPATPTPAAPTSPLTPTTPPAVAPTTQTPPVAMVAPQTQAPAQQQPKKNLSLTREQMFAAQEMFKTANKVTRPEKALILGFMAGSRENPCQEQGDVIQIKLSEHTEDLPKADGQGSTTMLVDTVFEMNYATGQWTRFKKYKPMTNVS
T1 sequence (Q8WX92 other isoform, or with tags, fused parts or gaps, chain 2 of 4): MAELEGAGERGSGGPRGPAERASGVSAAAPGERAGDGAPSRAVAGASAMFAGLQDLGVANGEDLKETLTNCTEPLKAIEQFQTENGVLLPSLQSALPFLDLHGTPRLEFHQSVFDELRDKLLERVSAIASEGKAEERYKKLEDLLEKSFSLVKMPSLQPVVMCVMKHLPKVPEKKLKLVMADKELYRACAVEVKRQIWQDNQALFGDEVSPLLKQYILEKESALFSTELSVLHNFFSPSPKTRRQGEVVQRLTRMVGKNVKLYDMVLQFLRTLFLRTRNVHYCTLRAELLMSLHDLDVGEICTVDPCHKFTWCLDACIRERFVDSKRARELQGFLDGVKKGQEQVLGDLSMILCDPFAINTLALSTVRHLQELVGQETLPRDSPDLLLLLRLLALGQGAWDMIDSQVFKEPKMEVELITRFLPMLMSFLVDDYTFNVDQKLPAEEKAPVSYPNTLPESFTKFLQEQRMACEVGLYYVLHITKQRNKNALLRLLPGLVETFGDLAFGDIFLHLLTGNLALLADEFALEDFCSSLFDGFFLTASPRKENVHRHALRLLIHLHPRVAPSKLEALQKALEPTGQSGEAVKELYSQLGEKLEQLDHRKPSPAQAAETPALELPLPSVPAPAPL
T1 sequence (Q8IXH7 whole entry, chain 3 of 4): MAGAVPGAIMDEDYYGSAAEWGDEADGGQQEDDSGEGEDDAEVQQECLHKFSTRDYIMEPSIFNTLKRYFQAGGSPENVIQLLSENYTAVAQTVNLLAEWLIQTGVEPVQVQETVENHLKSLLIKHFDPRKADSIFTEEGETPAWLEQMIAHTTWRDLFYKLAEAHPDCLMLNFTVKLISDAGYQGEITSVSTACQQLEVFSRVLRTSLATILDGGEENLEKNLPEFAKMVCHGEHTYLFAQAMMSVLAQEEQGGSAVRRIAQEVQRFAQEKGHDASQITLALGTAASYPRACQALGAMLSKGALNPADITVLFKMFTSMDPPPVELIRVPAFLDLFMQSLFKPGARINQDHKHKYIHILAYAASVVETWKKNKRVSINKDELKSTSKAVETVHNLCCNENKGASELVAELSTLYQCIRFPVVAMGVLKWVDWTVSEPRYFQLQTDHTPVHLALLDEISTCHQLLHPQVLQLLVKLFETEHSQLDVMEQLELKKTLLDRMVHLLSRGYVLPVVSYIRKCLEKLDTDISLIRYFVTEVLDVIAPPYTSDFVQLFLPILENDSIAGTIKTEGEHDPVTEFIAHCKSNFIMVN
T1 sequence (P18615 whole entry, chain 4 of 4): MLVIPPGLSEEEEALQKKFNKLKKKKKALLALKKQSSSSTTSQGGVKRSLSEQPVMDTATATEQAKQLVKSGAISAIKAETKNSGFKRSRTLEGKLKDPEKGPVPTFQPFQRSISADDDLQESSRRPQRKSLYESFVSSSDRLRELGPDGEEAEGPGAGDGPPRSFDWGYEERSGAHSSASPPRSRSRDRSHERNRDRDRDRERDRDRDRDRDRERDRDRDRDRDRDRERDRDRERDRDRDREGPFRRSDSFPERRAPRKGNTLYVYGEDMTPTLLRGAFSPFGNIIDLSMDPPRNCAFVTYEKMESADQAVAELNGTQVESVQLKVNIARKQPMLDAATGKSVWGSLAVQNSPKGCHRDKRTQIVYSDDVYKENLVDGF

NELF complex WT [2] = target: T1, NELF complex WT; experiment: EMSA (NELF release from PEC); DSIF also released at high RNA; 20 mM Na-HEPES pH 7.4, 100 mM NaCl, 25 mM KCl, 3 mM MgCl2, 2 mM DTT; assembly 30 °C, eRNA incubation 15-20 min at room temperature; 3.5% native PAGE 0.5x TBE at 4 °C; PEC about 0.1 µM NELF 0.15 µM
NELF complex WT [3] = target: T1, NELF complex WT; experiment: EMSA (NELF release from PEC); release at about equimolar eRNA; 20 mM Na-HEPES pH 7.4, 100 mM NaCl, 25 mM KCl, 3 mM MgCl2, 2 mM DTT; assembly 30 °C, eRNA incubation 15-20 min at room temperature; 3.5% native PAGE 0.5x TBE at 4 °C; PEC about 0.1 µM NELF 0.15 µM
NELF complex WT [4] = target: T1, NELF complex WT; experiment: size-exclusion chromatography; UV crosslinking-MS (365 nm); isolated NELF; 20 mM Na-HEPES pH 7.4, 100 mM NaCl, 25 mM KCl, 3 mM MgCl2, 2 mM DTT; assembly 30 °C, eRNA incubation 15-20 min at room temperature; 3.5% native PAGE 0.5x TBE at 4 °C; PEC about 0.1 µM NELF 0.15 µM
NELF complex WT [5] = target: T1, NELF complex WT; experiment: EMSA (NELF release from PEC); apparent Kd; NELF in PEC on N1; 20 mM Na-HEPES pH 7.4, 100 mM NaCl, 25 mM KCl, 3 mM MgCl2, 2 mM DTT; assembly 30 °C, eRNA incubation 15-20 min at room temperature; 3.5% native PAGE 0.5x TBE at 4 °C; PEC about 0.1 µM NELF 0.15 µM
NELF complex WT [6] = target: T1, NELF complex WT; experiment: EMSA (NELF release from PEC); 20 mM Na-HEPES pH 7.4, 100 mM NaCl, 25 mM KCl, 3 mM MgCl2, 2 mM DTT; assembly 30 °C, eRNA incubation 15-20 min at room temperature; 3.5% native PAGE 0.5x TBE at 4 °C; PEC about 0.1 µM NELF 0.15 µM
NELF complex WT [7] = target: T1, NELF complex WT; experiment: EMSA (NELF release from PEC); no DSIF release at high RNA; 20 mM Na-HEPES pH 7.4, 100 mM NaCl, 25 mM KCl, 3 mM MgCl2, 2 mM DTT; assembly 30 °C, eRNA incubation 15-20 min at room temperature; 3.5% native PAGE 0.5x TBE at 4 °C; PEC about 0.1 µM NELF 0.15 µM
NELF complex WT [8] = target: T1, NELF complex WT; experiment: EMSA (NELF release from PEC); 18-fold molar excess; 20 mM Na-HEPES pH 7.4, 100 mM NaCl, 25 mM KCl, 3 mM MgCl2, 2 mM DTT; assembly 30 °C, eRNA incubation 15-20 min at room temperature; 3.5% native PAGE 0.5x TBE at 4 °C; PEC about 0.1 µM NELF 0.15 µM

B1: poly(U) (ssRNA)
RNA: UUUUUUUUUUUUUUUUUUUUUUUUUUUUUUUUUUUUUUUUUUUUUUUUUUUUUUUUUUUUUUUUUUUUUUUUUUUUUUUU
binding result (NELF complex WT [1]): no binding

B2: poly(CU) (ssRNA)
RNA: CUCUCUCUCUCUCUCUCUCUCUCUCUCUCUCUCUCUCUCUCUCUCUCUCUCUCUCUCUCUCUCUCUCUCUCUCUCUCUCU
binding result (NELF complex WT [1]): no binding

B3: poly(GA)48, 96 nt (ssRNA)
RNA: GAGAGAGAGAGAGAGAGAGAGAGAGAGAGAGAGAGAGAGAGAGAGAGAGAGAGAGAGAGAGAGAGAGAGAGAGAGAGAGAGAGAGAGAGAGAGAGA
binding result (NELF complex WT [2]): binds

B4: Nr4a1-(b) eRNA 1-200 (structured_RNA)
RNA: AGUAGGGGCAUGGCUCGCCCGAGGCUCGGUGCUGCCCCGCCGCCCGCCGCGUUCCUUCCGGCUUGGUGUUCCGGUGGCGGGACCAGGGAAGGGAAGCUCGGGCCAAAUCCGGUCUCGGGCGAGGUGACAGAAAUUUGGAAUCUGACACCGGAGGAUGGCUGAGCUCCGGCUCCUCUGGGAGUGCAAUUACGGACUUCGCA
binding result (NELF complex WT [3]): binds

B5: Arc eRNA 1-200 (structured_RNA)
RNA: AAAACACAGCCGCCAGGGUGGGGGUGGCAGCCUUGAACGCCACCCUCUAACUGGCAUGGGCAUCUGAACUCUCAGCUCUGGGGGUGUCUCAUCGGCCAGCUGGCAGUAGCCCCCCCAACCCCACCCCUGAUGGAGAACUGCUCCUGUAUGAUCCAGCCCAGUGGGCGCACAGGGAGUUGGUAGGUGGGCACUCAGACUGG
binding result (NELF complex WT [3]): binds

B6: Arc eRNA 1-200, 4SU (structured_RNA)
RNA: B5 RNA
modifications: 4-thiouridine, 40-80% of U
binding result (NELF complex WT [4]): binds

B7: Nr4a1-(a) eRNA 1-100 (structured_RNA)
RNA: GCGGUGAGAGUGAUUUUGUAACUCUAAAGUUACAGAGGGUUUUGUUGUGUUUUUAAUCAAGAGCCCUGGUUUUGAUUUGUGGGUAAUCUUUCUUUAAACC
Kd (NELF complex WT [5]): 0.14 µM

B8: Nr4a1-(a) eRNA 1-100, 4SU (structured_RNA)
RNA: B7 RNA
modifications: 4-thiouridine, 40-80% of U
binding result (NELF complex WT [4]): binds

B9: Nr4a1-(b) eRNA 1-100 (structured_RNA)
RNA: AGUAGGGGCAUGGCUCGCCCGAGGCUCGGUGCUGCCCCGCCGCCCGCCGCGUUCCUUCCGGCUUGGUGUUCCGGUGGCGGGACCAGGGAAGGGAAGCUCG
Kd (NELF complex WT [5]): 2.02 µM

B10: poly(G2A), 96 nt (ssRNA)
RNA: GGAGGAGGAGGAGGAGGAGGAGGAGGAGGAGGAGGAGGAGGAGGAGGAGGAGGAGGAGGAGGAGGAGGAGGAGGAGGAGGAGGAGGAGGAGGAGGA
binding result (NELF complex WT [6]): binds

B11: Nr4a1-(a) eRNA 1-200 (structured_RNA)
RNA: GCGGUGAGAGUGAUUUUGUAACUCUAAAGUUACAGAGGGUUUUGUUGUGUUUUUAAUCAAGAGCCCUGGUUUUGAUUUGUGGGUAAUCUUUCUUUAAACCUCGCCCAUUUCCGGCCUGGUGACCUGGGCCACUUUCUCAUGUUGACCCAGAUGAUCCUCAGUAGCAAGAACAAAAGGACAACAGAUGUGGAAACACUCAA
binding result (NELF complex WT [3]): binds

B12: Nr4a1-(a) eRNA 1-200, 4SU (structured_RNA)
RNA: B11 RNA
modifications: 4-thiouridine, <60% of U
binding result (NELF complex WT [4]): binds

B13: poly(G2A6), 96 nt (ssRNA)
RNA: GGAAAAAAGGAAAAAAGGAAAAAAGGAAAAAAGGAAAAAAGGAAAAAAGGAAAAAAGGAAAAAAGGAAAAAAGGAAAAAAGGAAAAAAGGAAAAAA
binding result (NELF complex WT [7]): binds

B14: Arc eRNA 96-200 (structured_RNA)
RNA: CCAGCUGGCAGUAGCCCCCCCAACCCCACCCCUGAUGGAGAACUGCUCCUGUAUGAUCCAGCCCAGUGGGCGCACAGGGAGUUGGUAGGUGGGCACUCAGACUGG
binding result (NELF complex WT [6]): binds

B15: Nr4a1-(a) eRNA 1-50 (ssRNA)
RNA: GCGGUGAGAGUGAUUUUGUAACUCUAAAGUUACAGAGGGUUUUGUUGUGU
Kd (NELF complex WT [5]): 9.7 µM

B16: poly(UA) (ssRNA)
RNA: UAUAUAUAUAUAUAUAUAUAUAUAUAUAUAUAUAUAUAUAUAUAUAUAUAUAUAUAUAUAUAUAUAUAUAUAUAUAUAUAUAUAUAUAUAUAUAUA
binding result (NELF complex WT [1]): no binding

B17: Arc eRNA 1-50 (structured_RNA)
RNA: AAAACACAGCCGCCAGGGUGGGGGUGGCAGCCUUGAACGCCACCCUCUAA
binding result (NELF complex WT [8]): no binding

B18: poly(A) (ssRNA)
RNA: AAAAAAAAAAAAAAAAAAAAAAAAAAAAAAAAAAAAAAAAAAAAAAAAAAAAAAAAAAAAAAAAAAAAAAAAAAAAAAAA
binding result (NELF complex WT [1]): no binding

B19: poly(CA) (ssRNA)
RNA: CACACACACACACACACACACACACACACACACACACACACACACACACACACACACACACACACACACACACACACACACACACACACACACACA
binding result (NELF complex WT [1]): no binding

B20: Nr4a1-(b) eRNA 1-50 (structured_RNA)
RNA: AGUAGGGGCAUGGCUCGCCCGAGGCUCGGUGCUGCCCCGCCGCCCGCCGC
binding result (NELF complex WT [8]): no binding

B21: poly(GU)40, 80 nt (ssRNA)
RNA: GUGUGUGUGUGUGUGUGUGUGUGUGUGUGUGUGUGUGUGUGUGUGUGUGUGUGUGUGUGUGUGUGUGUGUGUGUGUGUGU
binding result (NELF complex WT [2]): binds
